For one molecule, Kd results are on record in PMC10953500 (2024).

In test [1] the target is recombinant CD89 (Fc-alpha receptor, FcαRI) with C-terminal His-tag (UniProt P24071 22-227). The test is described as follows: SPR.
Test [2] deals with receptor binding domain (RBD) of the SARS-CoV-2 spike protein with C-terminal 6xHis-tag (SARS-CoV-2, UniProt P0DTC2 319-541). The test is described as follows: SPR. (In general: Surface plasmon resonance follows binding to a sensor surface in real time, without labels.)

Sequence of recombinant CD89 (Fc-alpha receptor, FcαRI) with C-terminal His-tag (P24071 22-227): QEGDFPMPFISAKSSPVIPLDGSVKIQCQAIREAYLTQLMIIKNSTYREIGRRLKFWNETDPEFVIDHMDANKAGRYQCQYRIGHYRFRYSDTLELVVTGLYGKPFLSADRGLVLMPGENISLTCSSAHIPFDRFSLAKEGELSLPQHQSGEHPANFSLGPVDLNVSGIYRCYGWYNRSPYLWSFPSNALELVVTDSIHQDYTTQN

B1: COVA2-15 monomeric IgA2 (antibody)
chain 1: QVQLLESGGGLVQPGGSLRLSCAASGFTFSSYAMSWVRQAPGKGLEWASAISGSGGSTYYADSVEGRFTISRDNSKNTLYLQMNSLRAEDTAVYYCAKDTGYCGDDCYIKLIRGGPDYWGQGTLVTVSS
chain 2: DIVMTQSPLSLPVTLGQPASISCRSSQSLVYSDGNTFLNWFQQRPGQSPRRLIYQVSNRDSGVPDRFSGSGSGTDFTLKISRVEAEDVGVYYCMQGTHWPRTFGQGTKLEIK
As usually defined, the Kd is a measure of binding affinity in units of concentration. B1: the Kd in test [1] is 35.7 nM; in test [2], 1.56 nM.
